Data published in paper PMC3923644.
Where two headings read alike, the source gives them in different places.

Tests used:
APE1 WT [1] = molecular target: T1, APE1 WT (Homo sapiens, UniProt P27695 1-318); assay: SPR
APE1 NΔ33 [2] = molecular target: T2, APE1 NΔ33 (Homo sapiens, UniProt P27695 34-318, del1-33); assay: SPR
APE1 WT [3] = molecular target: T1, APE1 WT; assay: SPR; remark: listed apart in the source
APE1 WT [4] = molecular target: T1, APE1 WT; assay: EMSA
APE1 NΔ33 [5] = molecular target: T2, APE1 NΔ33; assay: EMSA

T2 sequence (P27695 34-318, stated change not applied): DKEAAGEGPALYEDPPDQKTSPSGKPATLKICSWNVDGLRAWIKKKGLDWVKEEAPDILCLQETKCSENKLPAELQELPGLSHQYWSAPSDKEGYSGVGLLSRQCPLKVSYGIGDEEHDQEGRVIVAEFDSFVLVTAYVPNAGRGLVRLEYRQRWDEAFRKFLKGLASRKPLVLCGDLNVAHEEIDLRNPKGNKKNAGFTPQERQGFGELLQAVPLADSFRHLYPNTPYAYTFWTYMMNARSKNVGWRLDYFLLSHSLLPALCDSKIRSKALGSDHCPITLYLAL
T1 sequence (P27695 whole entry): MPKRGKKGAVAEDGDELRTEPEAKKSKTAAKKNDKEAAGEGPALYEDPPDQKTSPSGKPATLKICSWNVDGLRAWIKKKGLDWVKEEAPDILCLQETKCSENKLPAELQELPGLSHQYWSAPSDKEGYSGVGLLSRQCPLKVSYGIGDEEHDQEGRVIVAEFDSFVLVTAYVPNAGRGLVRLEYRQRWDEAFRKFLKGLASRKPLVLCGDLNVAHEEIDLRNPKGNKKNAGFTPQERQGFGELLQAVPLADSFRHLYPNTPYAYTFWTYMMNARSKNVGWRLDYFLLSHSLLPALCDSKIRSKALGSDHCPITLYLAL

B1: nCaRE-B SIRT1-B (biotinylated) (dsDNA)
DNA 1: TTTTTGAGACGGAGTTTCGCTCTTG
DNA 2: CAAGAGCGAAACTCCGTCTCAAAAA
Kd (APE1 WT [1]): 3.9 ± 0.08 µM
binding result (APE1 NΔ33 [2]): no binding

B2: nCaRE-B SIRT1-B mutated (biotinylated) (dsDNA)
DNA 1: TTTTTGCTAAGGAGCGTCGCTCTTG
DNA 2: CAAGAGCGACGCTCCTTAGCAAAAA
Kd (APE1 WT [3]): 119 ± 8 µM

TTTTTTTTTTTTTTTTTTTTTTTT (ssDNA) [poly(dT) 24-mer]
Kd (APE1 WT [1]): 308 ± 3 µM
binding result (APE1 NΔ33 [2]): no binding

B3: nCaRE-B SIRT1-A (dsDNA)
DNA 1: TTTTTGAGACAGAGTTTCACTCTTG
DNA 2: CAAGAGTGAAACTCTGTCTCAAAAA
binding result (APE1 WT [4]): binds
binding result (APE1 NΔ33 [5]): no binding

B4: nCaRE-B SIRT1-B (dsDNA)
DNA 1: TTTTTGAGACGGAGTTTCGCTCTTG
DNA 2: CAAGAGCGAAACTCCGTCTCAAAAA
binding result (APE1 NΔ33 [5]): no binding
